# From US20200207859A1 (priority 2017, published 2020)
# B1: Conjugate A: anti-CD74 IgG with pAMF at heavy chain EU position 404 conjugated to DBCO-PEG4-maytansine (conjugate)
# VH: QVQLVESGGGVVQPGRSLRLSCAASGFNFSDYGMHWVRQAPGKGLEWVAVIWYDGSISYYADSVKGRFTISRDNSKNTLYLQMNSLRAEDTAVYYCARGGTVEHGAVYGTDVWGQGTTVTVSS
# VL: DIQMTQSPSSVSASVGDRVTITCRASQGIGSWLAWYQQKPGKAPKLLIYAADRLQSGVPSRFSGSGSGTDFTLTISSLQPEDFATYYCQQYHTYPLTFGGGTKVEIK
# modifications: non-natural residues
# Tests used:
# [1] = test system: ARP-1 multiple myeloma cells; test: Disseminated ARP-1 multiple myeloma model; format: in vivo, mouse; settings: CB17 SCID mice, ARP-1 i.v., 3 mg/kg q7dx4 IV
# Description: Female CB17 SCID (severe combined immunodeficiency) were inoculated with ARP-1 cells via tail vein injection. Prior to tumor cell inoculation, animals were pre-treated with 0.4 mg/mouse Fludarabine and 2 mg/mouse Cyclophosphamide (intraperitoneal injection). Randomization and treatment was initiated 14 days post tumor inoculation. Treatment groups are outlined in Table 4. All test articles were formulated in 10 mM citrate pH 6.0, 10% sucrose and diluted with PBS. Animals were administered with the designated test article four times every 7 days (q7dx4) by intravenous injection. […] Body weights were monitored twice per week. When vehicle control animals reached the study endpoint (euthanized due to large, palpable internal tumors), three animals from the Group 2 and Group 3 were euthanized for necropsy and bone marrow harvest (from tibia and femur) for flow cytometry. The remaining animals in treated groups were monitored for up to 3 months after start of treatment.
# Bone marrow cells from mouse femur and tibia were pooled and assessed for CD138 expression using the Alexa Fluor 647 mouse anti-human CD138 clone MI15 (BD Biosciences #562097) according to the manufacturer's protocol. Direct immunofluorescence flow cytometric analysis was performed using an LSRII flow cytometer and FACS Diva Software. Data was analyzed using Flowjo (Tree Star, Inc., Ashland, Oreg.).
# Body weight, tissue volume, or tissue weights at study endpoint, were analyzed using a one-way analysis of variance (ANOVA) with Dunnett's multiple comparison test. A probability of less than 5% (p<0.05) was considered as significant.
# SU-DHL-6 NHL tumors = test: Subcutaneous SU-DHL-6 non-Hodgkin's lymphoma model; format: in vivo, mouse; settings: CB17 SCID mice, s.c. SU-DHL-6, 10 mg/kg q7dx3 IV
# Description: Female CB17 SCID mice 9 weeks of age were anesthetized with isoflurane and implanted subcutaneously into the right flank with a 1:1 mixture of SU-DHL-6 cells and matrigel. Randomization, enrollment into treatment groups, and start of treatment was initiated approximately 14 days post implantation. Treatment groups are outlined in Table 6. All test articles were formulated in 10 mM citrate pH 6.0, 9% sucrose and diluted in PBS. Body weight and tumor size were monitored twice per week until mean of control treated tumors were >1000 mm^3 or end of study. Animal body weights included the tumor weight. Percent body weight change (BWC) is calculated relative to weight on the day of treatment. No samples were collected at the end of study.
# Tumor size on day 18 post-tumor implantation (last day control animals were on study) was analyzed using a one-way analysis of variance (ANOVA) with Dunnett's multiple comparison test. A probability of less than 5% (p<0.05) was considered as significant.
molecule,measurement,setting,value
B1,body weight change (BWC),[1],No meaningful change in body weight
same,delay of weight gain after first round of treatment,[1],approximately 20 days
same,human CD138 positive ARP-1 myeloma cells in the bone marrow (femur and tibia),[1]; flow cytometry,substantially inhibited ARP-1 growth in the bone marrow
same,kidney and ovary tissue weights,[1]; n=3,comparable tissue weights to untreated age-matched control animals
same,Average final tumor size on day 18,SU-DHL-6 NHL tumors,291 mm^3
same,tolerability (effects on animal body weights),SU-DHL-6 NHL tumors,well tolerated
same,tumor growth inhibition compared to control,SU-DHL-6 NHL tumors; day 18,~80%
